The record followed here is the NTF2 design screens of Basanta et al. (2020).

This series is described as follows: protease stability score; higher = more stable; yeast display proteolysis, trypsin and chymotrypsin.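 Also: relative to predicted unfolded state with 0 unfolded-like and 1 meaning tenfold more protease.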
In turn, “DEEEELWKELSKLIIHEWRTGDEEIFARLFDPNAKMRHLVDGRDDQHVGREKTVHVLLKVLEDLGIKHIKHEHITIQGDWVHMHTTLNVDGREIKVEMHFVVINGKYKSVEERTK” came in with a protease stability score of 0.966.
On to “DEEEELYRIALEESIRTLKTGDEDRVHELFDPRARIIVNGREFHGRERATKWAFDWIHKVKNMRFELRDFRIQGDKIIIHGKLHVNGQETEIIIIIHKIDGRWLIEQVEVR”, for which the protease stability score turned out to be 1.4.
To “DEEEEMAHRLVEQHDEFIRTGDERINHELADPHAKVEIGDKEFIGRETFSKLMVEWRTREIRLTHIEVINGQVHLYQDVRVDYNGKEMHQHVRWDSLKINGKWFDHSVHIK” belongs 0.317; to “DEEEEMAKKILDDLTHLLETGDEEVFRHLADPNVKVDELVNGRKIHRHGRQDWREIFKEMRLRHIHIRRVHVQGDKLHNDIEVDGDFNGRSHRDRTELILVIVDGRLRTIEIHVN”, 1.18; to “DEEEEMIEKIFKHLVEALRTGDWRQLEKLFDPNVRIEIGDKHSVGREEAVKFLEEWRKRADHIEHIDFRNRRSVDGRIEIEGRHLGHIDGRLVNTRVEFEIVIVDGKIEYNRLHVL”, 1.58.
To “DEEEEMRRRQTTLFLEAWITGDWDLIQRLLDPHTRVDVNGVEIHGMEEFARWFREKKEKVKNLRSHLTDIELQGEKVILYGIDTVNGKTHKVRVKVDIVDGVIKEVRFDLR” belongs 1.4; to “DEEEEMSKEATEWFKRVSKTGDEKDLVEFLDPNVLLEIGDKRFHGREVASHWMTRMFHEIRIRHIEEKEFRIYNGRATLHEHLDIEFDGRTSKIHVTVVYIKVNGRWFMESLHIR”, 0.808.
The figure for “DEEEEMSKELAELLVKAFVTGDWEEMTSMADPRTRTDVNGKDLHGWDESLRVIEELLRKMGIKHSNIHTVRVQGNWIHIDIRVIVGDKYHEVEIRVLVVNGRLKYLEYRIK” is 1.98.
Sequence “DEEEEMVLEMAYLFIHALHTGDEDMIRHLADPNMKVDINGQEHHGRDMSNEWWRREIDQIKNVRVDIDIDELHVIDGVAYVRTTVRYHFDGRTIVYFTTFDLIIVNGKIKSVKWEVE” had a protease stability score of 1.83.
To “DEEEEMVREVLHRVIHNILTGDEDSVSRMADPHVRVKEIINGKEFTLHGREMMLHMIREWRNRADHVEIHIRRSRVINGRLDSHGLLIIEINGKEIRHDTNLHLYVVDGVIKILTWNIE” belongs 1.45.
On to “DEEEENMRIAFKLLIEMHRTGDPEEHLELFDPHVRSIIGDKEYHGWEEYMRWIQHARVKELKLDSHRVYNGRVELDVRINVDVNGREIDREVHIIAEKVNGRWHFKSVRVL”, for which the protease stability score was 1.41.
For “DEEEENSRRAIEIVLQHMETGDEKTLEELVDPHVKLHYGDKTSHGRHHVAHLIMRLGVKHSRVEHVDSQGDKVFFFTRMRIGDKHFDTRVILLKVDGKWQIHELKFD”, the protease stability score was 1.96.
In turn, “DEEEEQAHTMLEIFLHNLVTGNEETINTLMDPHARTDIDGKIFHGRDWLEHFLRRFPHVRLHLKHIEWRVINGVAHLHLEMHVNVDGRHFDVRFHIHNEKINGRWFSHSFKYSIE” had a protease stability score of 1.44.
The figure for “DEEEEQARDLTKLLEKLWATGDEHTLLRLLDPNARNIVGDKEHHGREILLKFWRHLGVSRVESKIEDVKVFDGRVYIKGRVRFDGVELETEIESEKVNGQWHIRIIRMR” is 1.79.
Take “DEEEEQARHMVMLFLRYILTGDEKHFQTLADPDVRTDVNGKEHHGREEATRTLRLYIELMGADHIQLKDWEIEVQGEFVRLRLHVQVDVGDKHLRTDLHFEIKKVNGQWVVHQVVIKTL”: the protease stability score was 2.19.
“DEEEEQTHHMFKRILEVLRTGDERMLLDLADPHVRLEVGDKHMIGMDSLVHFNARIKNMRIRLRSIDFQGDYAHINTELEFDGRNHHITIVVLKVDGKWIIRSQHVK” yielded a protease stability score of 1.46.
The figure for “DEEEERARHWIERFVRAVLTGDWEHILRNADPNVRLHVGDKEIHGRERMIETFREFWERYPGVRIKIHQVEIQGEKSHLDGEIRFDGRRFRVEFEVVIINGKIHELHIRIH” is 2.62.
“DEEEERARRDLFIWAHAVKTGDEKRYKELFDPNDKLDINGQEIHGMESVVKLIRHIRIEDIHLHLHDIRLIGDKLHVDGQIRQHTHVGDKRVHDTINVNDIVHKVNGQWHWKSIIYH” gave a protease stability score of 1.03.
To “DEEEEREKELRERWEHFLKTGDWKKIEELADPHVRLDVGDKELVGRELFVEFIRRLLEHLGFNVFRINHIDLQGEKINMDVEREIGDKSTRVELHILKIDGQWILKRVIIN” belongs 1.82.
In the case of “DEEEERFEEVWRRLARALETGDEETVRHLIDPNVLIIIGDKTIHGWESLSTYLKEIRLTISDMRVRSRSEVNGKLEFDTHTHRVVFINGVELHVEERIHITMLKIDGRWHIHSIEFR”, the protease stability score was determined as 1.45.
To “DEEEERLEELSKLLLEMVLTGNWDETLELADPHALIEIGDKRFHGWEHWVKLYLRIKNVRFELRIDSVRPIGDKAEIDGHVIIRIGDKEKEFDLRVEIDVVDGRLKENSIRRR” belongs 1.35; to “DEEEERLEKLAEILIHYHLTGDFEILLEYADPNVQTEFDGVEIHGMELSNKFLEKSNKKLGVDHRHYKSYSAYGNKVTVLSEIHVNGRKMEVRFRWDVVNGKIQTLHIHFD”, 1.05.
To “DEEEERMDRAYDHWRENILTGDWKRLRELADPHAKMDINGVDIHGMETFNKILSEELKEIRLKDVHIDDKHVVDGQLHVHGKRETLFNGKNTWIKTHIHLVIIDGRFHSYTVHIE” belongs 0.281.
To “DEEEERMQEKLHRYLHDLVTGDEEEFHKYADPHVKTRVGDKILHGREKAREFWHEIRIKDIKLDHKDIQGDFVRLHVRVHGRINGQDIDFRVEIFFRKINGRWIIESQEIN” belongs 0.816; to “DEEEERRRHLIDVLLRLWHTGDEESFTNLADPHVRIHVGDKIFHGREAASRWMHNVREHWRLHHERDHDVKIQGEKVVRDGHVDIEFNGVRVRTRVEIILTVVNGQIKLIEIRIL”, 1.26.
On to “DEEEERTERVSQLFWELFLTGDEEELFKLVDPHVRSHVGDKDYHGRETAHEIWHRIKNVRMRLDHVELRIVNGRADLHVRGKLIIGDKKVELNIEILVVKVNGQWLVERIRVETK”, for which the protease stability score was determined as 1.31.
The figure for “DEEEERTKHHFELLFKLWTTGDEDSLSHLADPNVRVHVDGKDFHGWEDMKDFMREWIERFKNVRLELKHFEAQGDKASSEIKIHYGDKHVTEFIEIILFNGRLHEIRRLFKRD” is 1.01; for “DEEEERVIHIMHLFLEHISTGDEDKVKHLMDPNVRVFIGNKQHVGMHEIIKHLREWRIELDDVRTEEVRIQGDKLHLNGRLHVTLEFNGRRIRTTVRTTNIFRKVDGRWILEAIHID” it is 1.58; for “DEEEERVRNFVERLSKAVRTGDEEEMRDLFDPDVKSRQGDKDVIGRELVAEWLSKFFLRRGIEVHFELKRFEFQGDYLHLRLHVEVRIDGKDHTLTMYVLLIKVDGRWILHSIHRE” it is 1.54.
The figure for “DEEEERVRRIMKEFIESLLTGDFRILTELMDPNARLHVDGVELHGRETMRKFWKDRERELGVENFDAKQRDVRLINGKAHNDGELLINGQVTKWILRVEKVDGRWRLHHIELH” is 0.231.
To “DEEEESNRHLAEKFEEHHRTGDWRMMSKMFDPHVRVERIFNGRTVIIHGWEKYVKTVKDEFERIKGARLIIDDMKVQGEKSRVEGTLKINGRTVEVDIHLDIVDGRLRHVRIEIE” belongs 0.201; to “DEEEESSHNALKYWMHSLITGDEHTIERLADPHVLMVVNGKTFHGMERFHEALHEFNERIDHIERIEIKDMKIFDGRVIVELKVHGRIGDKRHELETYLVILKYDGKWHLHSISVK”, 0.964; to “DEEEESTKRVAKVLHHTNRTGDEKTMNEMLDPNAKQDYNGRINIGWERILEVLREWKDRLGLTRIELHIHDFDIQGDKARIDTTVDFNGVEFKLIIYVRKIDGKWVLERIEVR”, 0.368.
The sequence “DEEEESYRIAEHLFREVMETGDERISEHLADPRTRFQVGDKTFHGMDEWREVLHRMLVEIRMHDVKVHDVKSIGDKLIIDGYLYIEINGRRTSIYTELYWLKVNGQWRLHYITMH” returned a protease stability score of 1.12.
Turning to “DEEEETARRLTEELIRSQKTGDWEFLLRLMDPHAKSDINGVHVVGMEETVRILEKLLRDLGVTKVEALLHRVHFIDGRVHVDSEERYGDKWFRVHFTVQKINGKWVIRSIEVR”, the protease stability score came to 1.4.
To “DEEEETEKKWADIFTKAWITGDEETLERLMDPNVKYHQEVGDKHWSAHGREEVSRHIHELLKHLGVKVVELRRIHVINGVVHVDGKTIVNGREFTVHIHYRIVDGRVREIRFEFR” belongs 2.22; to “DEEEETIRKYIEMMIRLWETGDEKSMLDLFDPDVRTLVNGQHLHGRHALEILLRRIDVRRHVHLHHIDLQGNKVEIDSRLEGTVDGKRDDIELTHHMVKVDGQWVIHNVEVR”, 1.02.
In turn, “DEEEETIRRDAKLTLDLIRTGDEEHLKKMLDPHVRLQIVIGDKTIENHGREEVIRRLRHEWKRFKNMRILIEDKRVVGNWVHFFGTILYNGVEHEAVLDLVLIDGVLHSIRINVI” had a protease stability score of 1.6.
To “DEEEETLREMLRMSKEALETGDETELHELFDPNVRVVVDGVTLHGWEAWSQFLREIRLSIREVRIKRVDRVDGKIIIDGKFHRIIIQGDKTRENTIDAEVLIRKVDGKWVYEHDSYL” belongs 0.823.
For the sequence “DEEEETLRWVKELLKHLSKTGDFEKIVNYMDPDVRLNVDGVELVGMHHLERLAKEIRFKIHDLHPRRERIFDGKIQMDVEIDRIIHYGDKTTRERTTIIIIFEKVNGRWLIHTIHVH”, the protease stability score is 1.17.
Sequence “DEEEETMERALRETLHFINTGDEDSMEELMDPNWRIHIDGKDLHGWKFFQHLLRRADHIHIHIELKDVRRVGDKLELDGRLHVIYFIDGQEIHKVVDTHIYMIKINGRWHHKFIEIK” came in with a protease stability score of 2.15.
The figure for “DEEEETMRNIIMDWFRAMFTGDEERVNELLDPNARIEVGDKEWHGRDEFRKVLEHIRIHTRQIRIRRIDFFENRVHMDVQLDRELRFDGKTERIDVKLELFLVKIDGRWRFKETSVH” is 2.57.
In turn, “DEEEEVLKTYLKLLIDALRTGDEHTMTRLIDPHARTHQGDKEIHGRKSMEELNKRYPNVRVDIRHISEVGDKITIDAVLHVGDKRYEIVIIAWKVNGRWEHTEFEFR” returned a protease stability score of 0.808.
The figure for “DEEEEWARYILKKTMEAWLTGDEEIIRELLDPSTRLVIDGKEFHGMDEAQFLVREIRIDRIRTDMHDVKFQGDWIHVDGHIRVDETVNGRRRHKENRINIIVLKIDGRWYLHRYIIG” is 2.35.
“DEEEEWATEAWKLHLHHHRTGDERMIHELLDPNMRLDFDGVELHGRKLVKEFIERTLRRFDVIDEYDHSDVRIQGDKVDLIQVVRGEIDGRRTHVNQRLIMIKIDGRWVVKHVRLQ”: the protease stability score stood at 1.23.
“DEEEEWLREVLRLIIEFLKTGDEDRLNEMADPTTRLRVGEFHHVGREEVHKFRKKKKDELGVDKIEFRLEDVRIQGDKATADGRVQYNGQEYKMRVIVVVVNGKVKSLTEEWE” returned a protease stability score of 1.07.
The figure for “DEEEEWVRHLAHLFFEWYLTGDWQRFSELMDPTTLSVYGDKHFHGMELVVEFLSRSLDEMRIEHVEFKDIRVYNGVAHVHLRFEGKIGDKRTETDSRLLLYVVDGRIKHVKFIIK” is 1.39.
